# Measured values taken from PMC12008302.
# Experiments:
# [1] = intracellular IDUA activity 24 h after enzyme addition; conditions: glycan changed form; control: HM-IDUA
# [2] = AcidiFluor ORANGE live-cell imaging of lysosomal delivery; conditions: glycan changed form; control: AFO-labeled HM-IDUA
Protein,other: cellular uptake [1],localisation_or_trafficking [2]
"α-L-iduronidase (hIDUA): M6P-IDUA (Endo-D, then Endo-M N175Q transglycosylation) (protein) parent chain: MRPLRPRAALLALLASLLAAPPVAPAEAPHLVHVDAARALWPLRRFWRSTGFCPPLPHSQADQYVLSWDQQLNLAYVGAVPHRGIKQVRTHWLLELVTTRGSTGRGLSYNFTHLDGYLDLLRENQLLPGFELMGSASGHFTDFEDKQQVFEWKDLVSSLARRYIGRYGLAHVSKWNFETWNEPDHHDFDNVSMTMQGFLNYYDACSEGLRAASPALRLGGPGDSFHTPPRSPLSWGLLRHCHDGTNFFTGEAGVRLDYISLHRKGARSSISILEQEKVVAQQIRQLFPKFADTPIYNDEADPLVGWSLPQPWRADVTYAAMVVKVIAQHQNLLLANTTSAFPYALLSNDNAFLSYHPHPFAQRTLTARFQVNNTRPPHVQLLRKPVLTAMGLLALLDEEQLWAEVSQAGTVLDSNHTVGVLASAHRPQGPADAWRAAVLIYASDDTRAHPNRSVAVTLRLRGVPPGPGLVYVTRYLDNGLCSPDGEWRRLGRPVFPTAEQFRRMRAAEDPVAAAPRPLPAGGRLTLRPALRLPSLLLVHVCARPEKPPGQVTRLRALPLTQGQLVLVWSDEHVGSKCLWTYEIQFSQDGKAYTPVSRKPSTFNLFVFSPDTGAVSGSYRVRALDYWARPGPFSDPVPYLEVPVPRGPPSPGNP",increases,
α-L-iduronidase (hIDUA): SG-IDUA (Endo-CC N180H transglycosylation) (protein) parent chain: MRPLRPRAALLALLASLLAAPPVAPAEAPHLVHVDAARALWPLRRFWRSTGFCPPLPHSQADQYVLSWDQQLNLAYVGAVPHRGIKQVRTHWLLELVTTRGSTGRGLSYNFTHLDGYLDLLRENQLLPGFELMGSASGHFTDFEDKQQVFEWKDLVSSLARRYIGRYGLAHVSKWNFETWNEPDHHDFDNVSMTMQGFLNYYDACSEGLRAASPALRLGGPGDSFHTPPRSPLSWGLLRHCHDGTNFFTGEAGVRLDYISLHRKGARSSISILEQEKVVAQQIRQLFPKFADTPIYNDEADPLVGWSLPQPWRADVTYAAMVVKVIAQHQNLLLANTTSAFPYALLSNDNAFLSYHPHPFAQRTLTARFQVNNTRPPHVQLLRKPVLTAMGLLALLDEEQLWAEVSQAGTVLDSNHTVGVLASAHRPQGPADAWRAAVLIYASDDTRAHPNRSVAVTLRLRGVPPGPGLVYVTRYLDNGLCSPDGEWRRLGRPVFPTAEQFRRMRAAEDPVAAAPRPLPAGGRLTLRPALRLPSLLLVHVCARPEKPPGQVTRLRALPLTQGQLVLVWSDEHVGSKCLWTYEIQFSQDGKAYTPVSRKPSTFNLFVFSPDTGAVSGSYRVRALDYWARPGPFSDPVPYLEVPVPRGPPSPGNP,increases,
α-L-iduronidase (hIDUA): M6P-IDUA (protein) parent chain: MRPLRPRAALLALLASLLAAPPVAPAEAPHLVHVDAARALWPLRRFWRSTGFCPPLPHSQADQYVLSWDQQLNLAYVGAVPHRGIKQVRTHWLLELVTTRGSTGRGLSYNFTHLDGYLDLLRENQLLPGFELMGSASGHFTDFEDKQQVFEWKDLVSSLARRYIGRYGLAHVSKWNFETWNEPDHHDFDNVSMTMQGFLNYYDACSEGLRAASPALRLGGPGDSFHTPPRSPLSWGLLRHCHDGTNFFTGEAGVRLDYISLHRKGARSSISILEQEKVVAQQIRQLFPKFADTPIYNDEADPLVGWSLPQPWRADVTYAAMVVKVIAQHQNLLLANTTSAFPYALLSNDNAFLSYHPHPFAQRTLTARFQVNNTRPPHVQLLRKPVLTAMGLLALLDEEQLWAEVSQAGTVLDSNHTVGVLASAHRPQGPADAWRAAVLIYASDDTRAHPNRSVAVTLRLRGVPPGPGLVYVTRYLDNGLCSPDGEWRRLGRPVFPTAEQFRRMRAAEDPVAAAPRPLPAGGRLTLRPALRLPSLLLVHVCARPEKPPGQVTRLRALPLTQGQLVLVWSDEHVGSKCLWTYEIQFSQDGKAYTPVSRKPSTFNLFVFSPDTGAVSGSYRVRALDYWARPGPFSDPVPYLEVPVPRGPPSPGNP,,increases
α-L-iduronidase (hIDUA): SG-IDUA (protein) parent chain: MRPLRPRAALLALLASLLAAPPVAPAEAPHLVHVDAARALWPLRRFWRSTGFCPPLPHSQADQYVLSWDQQLNLAYVGAVPHRGIKQVRTHWLLELVTTRGSTGRGLSYNFTHLDGYLDLLRENQLLPGFELMGSASGHFTDFEDKQQVFEWKDLVSSLARRYIGRYGLAHVSKWNFETWNEPDHHDFDNVSMTMQGFLNYYDACSEGLRAASPALRLGGPGDSFHTPPRSPLSWGLLRHCHDGTNFFTGEAGVRLDYISLHRKGARSSISILEQEKVVAQQIRQLFPKFADTPIYNDEADPLVGWSLPQPWRADVTYAAMVVKVIAQHQNLLLANTTSAFPYALLSNDNAFLSYHPHPFAQRTLTARFQVNNTRPPHVQLLRKPVLTAMGLLALLDEEQLWAEVSQAGTVLDSNHTVGVLASAHRPQGPADAWRAAVLIYASDDTRAHPNRSVAVTLRLRGVPPGPGLVYVTRYLDNGLCSPDGEWRRLGRPVFPTAEQFRRMRAAEDPVAAAPRPLPAGGRLTLRPALRLPSLLLVHVCARPEKPPGQVTRLRALPLTQGQLVLVWSDEHVGSKCLWTYEIQFSQDGKAYTPVSRKPSTFNLFVFSPDTGAVSGSYRVRALDYWARPGPFSDPVPYLEVPVPRGPPSPGNP,,increases
